The target in one assay is hFcγR 2b (human) (UniProt P31994). Briefly: BLI; biotinylated avi-tagged receptor-monomeric Fc fusion on streptavidin biosensor, antibody titrated as analyte; 1:1 global fit. Background: Biolayer interferometry detects binding as a change in optical thickness at a sensor tip.
Assay [1] addresses hCD64 P2 mFc.67 N297A LALA-PG avi (human) (UniProt P12314). Described as above.
Assay [2] addresses hFcRN mFc.67 N297A IHH avi biotin (human) (UniProt P55899). Briefly: BLI at pH 7.46 (row 'hFcRN pH 7.46'); biotinylated hFcRN-monomeric Fc fusion on streptavidin biosensor, antibody titrated as analyte; 1:1 global fit.
Assay [3] has the same target. Briefly: BLI at pH 6.09 (row 'hFcRN pH 6.09'); biotinylated hFcRN-monomeric Fc fusion on streptavidin biosensor, antibody titrated as analyte; 1:1 global fit.
Assay [4] has as its target hCD70 Biotin E131664-01 (human) (UniProt P32970). The assay is described as follows: BLI; antibody as probe on AHC (anti-Fc) biosensor, hCD70 Biotin titrated as analyte; '37 C' printed with the probe; 1:1 global fit.
For assay [5], the target named is hFcgR 2a R131 mFc.67 N297A LALAPG avi biotin (human) (UniProt P12318). Briefly: BLI; biotinylated avi-tagged receptor-monomeric Fc fusion on streptavidin biosensor, antibody titrated as analyte; 1:1 global fit.
Assay [6] has as its target hFcgR 2a H131 mFc.67 N297A LALAPG avi biotin (human) (UniProt P12318). Described as above.
Assay [7] has as its target hFcgR 3a F158 mFc.67 N297A LALAPG avi biotin (human) (UniProt P08637). The description is as above.
In assay [8] the target is hFcgR 3a V158 mFc.67 N297A LALAPG avi biotin (human) (UniProt P08637). The assay is described as follows: BLI; biotinylated FcγR fusion on streptavidin biosensor, antibody titrated; 1:1 global fit.
The target in assay [9] is high affinity human FcγRIIIa receptor (158V) overexpressed on CHO cells (human) (UniProt P08637). Briefly: flow cytometry on CHO cells overexpressing human FcγRIIIa 158V (CHO/hCD16); detection with anti-human IgG-PE. A general note: A flow cytometer gives signals particle by particle.
Sequence of high affinity human FcγRIIIa receptor (158V) overexpressed on CHO cells (human) (P08637 17-254 F176V): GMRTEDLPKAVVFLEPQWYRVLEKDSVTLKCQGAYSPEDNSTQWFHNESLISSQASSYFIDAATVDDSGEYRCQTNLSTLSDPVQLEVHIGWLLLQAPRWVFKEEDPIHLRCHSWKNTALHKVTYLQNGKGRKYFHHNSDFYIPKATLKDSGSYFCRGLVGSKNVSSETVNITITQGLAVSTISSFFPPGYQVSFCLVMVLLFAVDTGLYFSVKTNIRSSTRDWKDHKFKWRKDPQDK
Assay [10] concerns the target hCD70 Biotin E131664-01 (human) (UniProt P32970). The assay is described as follows: BLI; antibody as probe on AHC (anti-Fc) biosensor, hCD70 Biotin titrated as analyte; '37 C' printed with the probe; 1:1 global fit [Cont.].
Assay [11] deals with cynomolgus FcγRIIIa receptor overexpressed on CHO cells (cynomolgus) (UniProt Q8SPW2). Briefly: flow cytometry on CHO cells overexpressing cynomolgus FcγRIIIa (CHO/cynoCD16); detection with anti-human IgG-PE.
Sequence of cynomolgus FcγRIIIa receptor overexpressed on CHO cells (cynomolgus) (Q8SPW2 17-254): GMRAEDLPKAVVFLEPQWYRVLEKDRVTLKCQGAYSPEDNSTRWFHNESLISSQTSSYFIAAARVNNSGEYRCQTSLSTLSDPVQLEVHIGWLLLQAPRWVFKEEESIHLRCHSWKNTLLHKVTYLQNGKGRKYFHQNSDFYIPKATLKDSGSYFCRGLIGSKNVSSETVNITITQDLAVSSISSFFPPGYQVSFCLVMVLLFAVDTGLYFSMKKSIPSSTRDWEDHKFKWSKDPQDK

Sequence of hCD70 Biotin E131664-01 (human) (P32970 39-193 limits assumed): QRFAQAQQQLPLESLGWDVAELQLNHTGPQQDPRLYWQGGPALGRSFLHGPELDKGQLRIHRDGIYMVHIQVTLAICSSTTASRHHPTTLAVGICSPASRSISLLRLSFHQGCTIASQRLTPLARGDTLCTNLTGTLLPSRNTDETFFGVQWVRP
Sequence of hFcγR 2b (human) (P31994 43-217): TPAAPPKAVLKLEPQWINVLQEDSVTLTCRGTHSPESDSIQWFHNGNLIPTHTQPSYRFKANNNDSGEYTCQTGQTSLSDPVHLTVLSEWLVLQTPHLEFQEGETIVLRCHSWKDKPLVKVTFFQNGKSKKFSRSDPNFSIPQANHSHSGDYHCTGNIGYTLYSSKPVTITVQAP

B1: SEA-CD70 (nonfucosylated h1F6) (antibody, INN chains, looked up, V domains shown, part only)
VH: QVQLVQSGAEVKKPGASVKVSCKASGYTFTNYGMNWVRQAPGQGLKWMGWINTYTGEPTYADAFKGRVTMTRDTSISTAYMELSRLRSDDTAVYYCARDYGDYGMDYWGQGTTVTVSS
VL: DIVMTQSPDSLAVSLGERATINCRASKSVSTSGYSFMHWYQQKPGQPPKLLIYLASNLESGVPDRFSGSGSGTDFTLTISSLQAEDVAVYYCQHSREVPWTFGQGTKVEIK
modifications: nonfucosylated afucosylated
In the case of B1, the dissociation constant (Kd) (as a rule, the constant that tells how readily two partners part at equilibrium) worked out at 27000 nM in the assay with hFcγR 2b (human); 0.42 nM in assay [1]; 16700 nM in assay [2]; 19 nM in assay [3]; 0.24 nM in [4].

B2: SGN-70 (fucosylated h1F6) (antibody, INN chains, looked up, V domains shown, part only)
VH: QVQLVQSGAEVKKPGASVKVSCKASGYTFTNYGMNWVRQAPGQGLKWMGWINTYTGEPTYADAFKGRVTMTRDTSISTAYMELSRLRSDDTAVYYCARDYGDYGMDYWGQGTTVTVSS
VL: DIVMTQSPDSLAVSLGERATINCRASKSVSTSGYSFMHWYQQKPGQPPKLLIYLASNLESGVPDRFSGSGSGTDFTLTISSLQAEDVAVYYCQHSREVPWTFGQGTKVEIK
With B2, the equilibrium dissociation constant (Kd) in [5] came to 4500 nM; in the assay with hFcγR 2b (human), 25000 nM; in assay [6], 2600 nM; in [7], 5300 nM; in [1] it was 0.66 nM; in [8], 860 nM. Further, the dissociation constant (Kd) was determined as 15000 nM in assay [2], 17 nM in [3] and 0.23 nM in assay [4]. Moreover, the kon (in general, a measure of how fast the partners come together) in assay [5] is 77000 M⁻¹ s⁻¹; in the assay with hFcγR 2b (human) it was 26000 M⁻¹ s⁻¹; in assay [6], 100000 M⁻¹ s⁻¹; in [7] it was 27000 M⁻¹ s⁻¹; in [1], 770000 M⁻¹ s⁻¹; in assay [2], 42000 M⁻¹ s⁻¹. Also, the kon was determined as 720000 M⁻¹ s⁻¹ in assay [3] and 270000 M⁻¹ s⁻¹ in assay [10]. Also, the EC50 (read off the curve) in assay [9] and in assay [11] was 1 µg/mL each time.

The values above are taken from patent US20240166757A1.
